According to publication PMC5845983:

Tests used:
[1] = biological target: CR1 bimodular fragment CCP24-25 His6 (human); test: SPR; BIAcore 3000, multiple cycle; CCP24-25 amine-coupled on CM5 (1,000 RU); MBL injected at 20 µl/min in buffer with 3 mM EDTA (methods: HBS-P; legend of Figure 4: 50 mM TEA, 145 mM NaCl, 0.05% P20, pH 7.4); global 1:1 Langmuir fit; apparent KD = kd/ka
[2] = biological target: CR1 CCP22-30 (Homo sapiens) (UniProt P17927); test: SPR; conditions: cited from earlier work
[3] = biological target: CR1 soluble CR1 (Homo sapiens) (UniProt P17927); test: SPR; conditions: cited from earlier work

Chain of MBL (P11226 21-248): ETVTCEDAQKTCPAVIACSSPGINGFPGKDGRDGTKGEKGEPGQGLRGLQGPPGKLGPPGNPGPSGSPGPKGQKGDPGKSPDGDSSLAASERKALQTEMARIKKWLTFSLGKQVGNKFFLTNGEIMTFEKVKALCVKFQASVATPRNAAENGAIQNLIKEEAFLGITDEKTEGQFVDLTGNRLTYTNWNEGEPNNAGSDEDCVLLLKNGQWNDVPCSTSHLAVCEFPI

Kd [1] [nM]	koff [1] [s⁻¹]	Substance	Kd [2] [nM]	Kd [3] [nM]
0.65	0.00109	Recombinant mannose-binding lectin (MBL) (from UniProt P11226 21-248) (natural protein)		
		MBL (from UniProt P11226)	0.37	0.76
